Measured values from patent publication US20180177842A1 (CANIMGUIDE THERAPEUTICS, published 2018).

T1: P3028 (VFDEFKPLVEEPQNLIK, SEQ ID NO: 185), His-tagged (human)
T1 construct: Synthetic fragment of human serum albumin (positions 397-413); used in solution as His-tagged peptide PGE73; also called PGE73; not shown: His-tag
T1 peptide: VFDEFKPLVEEPQNLIK


Biological target: T1, P3028 (VFDEFKPLVEEPQNLIK, SEQ ID NO: …)
Test: PEPSCAN ELISA; peptide on chip, His-P3028 added;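 also: peroxidase color development with ABTS and H2O2 substrate, OD405 imaged by CCD camera with image processing and taken as raw values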
Description: After washing, the peroxidase substrate 2,2′-azine-di-3-ethylbenzthiazoline sulfonate (ABTS) and 2 μL of 3% H2O2 were added. The binding capacity of the mAb was measured as a color development at 405 nm (optical density, OD405). The color development was quantified with a charge-coupled device (CCD)—camera and an image processing system.
The OD405-values obtained by a CCD-camera was considered as raw data values (“rampo values,” “rampo units,” or “rampo scores”). […] First the CCD-camera made a picture of the card before peroxidase coloring and then again a picture after the peroxidase coloring. […] These values were copied into an excel file and labeled as a raw data file. […] Sometimes a well can contain an air-bubble resulting in a false-positive value. If manual inspection of the cards detect an air-bubble the value are set to 0 for well.

Binder	RAMPO Score
KKLDTFFVKLSLFCER [KKLDTFFVKLSLFCER (SEQ ID NO: 520)]	254 rampo units
KKLDTFFVKLSLFYER [KKLDTFFVKLSLFYER (SEQ ID NO: 514)]	270 rampo units
KKLDTFFVKLSLFTRR [KKLDTFFVKLSLFTRR (SEQ ID NO: 531)]	237 rampo units
KKLDTFFVKLSLFTMR [KKLDTFFVKLSLFTMR (SEQ ID NO: 524)]	247 rampo units
KKLDTFFVKLWLFTER [KKLDTFFVKLWLFTER (SEQ ID NO: 472)]	324 rampo units
KKLDTFFVKLSLFTEN [KKLDTFFVKLSLFTEN (SEQ ID NO: 390)]	311 rampo units
KKLDTFFVKLSLMTER [KKLDTFFVKLSLMTER (SEQ ID NO: 367)]	1190 rampo units
KKLDTFFVKLSLFTEY [KKLDTFFVKLSLFTEY (SEQ ID NO: 393)]	311 rampo units
KKLDTFFVKLSLSTER [KKLDTFFVKLSLSTER (SEQ ID NO: 372)]	635 rampo units
KKLDTFFVKLSLFTEF [KKLDTFFVKLSLFTEF (SEQ ID NO: 388)]	297 rampo units
KKLDTFFVKLSLITER [KKLDTFFVKLSLITER (SEQ ID NO: 365)]	468 rampo units
KKLDTFFVKLSVFTER [KKLDTFFVKLSVFTER (SEQ ID NO: 359)]	545 rampo units
KKLDTFFVKLSLFWER [KKLDTFFVKLSLFWER (SEQ ID NO: 386)]	374 rampo units
KKLDTFFVKLSLGTER [KKLDTFFVKLSLGTER (SEQ ID NO: 363)]	531 rampo units
KKLDTFFVKLSLFTDR [KKLDTFFVKLSLFTDR (SEQ ID NO: 387)]	404 rampo units
KKLDTFFVKLSLFPER [KKLDTFFVKLSLFPER (SEQ ID NO: 383)]	551 rampo units
KKLDTFFVKLVLFTER [KKLDTFFVKLVLFTER (SEQ ID NO: 419)]	392 rampo units
KKLDTFFVKLSQFTER [KKLDTFFVKLSQFTER (SEQ ID NO: 355)]	651 rampo units
KKLDTFFVKLSLFTLR [KKLDTFFVKLSLFTLR (SEQ ID NO: 525)]	246 rampo units
KKLDTFFVKLSLFTEM [KKLDTFFVKLSLFTEM (SEQ ID NO: 529)]	238 rampo units
KKLDTFFVKLSLFRER [KKLDTFFVKLSLFRER (SEQ ID NO: 33)]	264 rampo units
KKLDTFFVKLSLFGER [KKLDTFFVKLSLFGER (SEQ ID NO: 377)]	343 rampo units

Binder	RAMPO Score
KKLDTFFVKLSLWTER [KKLDTFFVKLSLWTER (SEQ ID NO: 375)]	430 rampo units
KKLDTFFVKLSLFTKR [KKLDTFFVKLSLFTKR (SEQ ID NO: 471)]	324 rampo units
KKLDTFFVKLSMFTER [KKLDTFFVKLSMFTER (SEQ ID NO: 353)]	499 rampo units
KKLDTFFVKLSLFTYR [KKLDTFFVKLSLFTYR (SEQ ID NO: 459)]	340 rampo units
KKLDTFFVKLSLYTER [KKLDTFFVKLSLYTER (SEQ ID NO: 503)]	291 rampo units
KKLDTFFVKLSLFSER [KKLDTFFVKLSLFSER (SEQ ID NO: 384)]	369 rampo units
KKLDTFFVKLSLFMER [KKLDTFFVKLSLFMER (SEQ ID NO: 381)]	501 rampo units
KKLDTFFVKLSLRTER [KKLDTFFVKLSLRTER (SEQ ID NO: 371)]	502 rampo units
KKLDTFFVKNSLFTER [KKLDTFFVKNSLFTER (SEQ ID NO: 337)]	365 rampo units
KKLDTFFVKLSLFTEV [KKLDTFFVKLSLFTEV (SEQ ID NO: 521)]	254 rampo units
KKLDTFFVKPSLFTER [KKLDTFFVKPSLFTER (SEQ ID NO: 338)]	436 rampo units
KKLDTFFVKLSLFIER [KKLDTFFVKLSLFIER (SEQ ID NO: 379)]	375 rampo units
KKLDTFFVKLSLFLER [KKLDTFFVKLSLFLER (SEQ ID NO: 380)]	360 rampo units
KKLDTFFVKLSLFKER [KKLDTFFVKLSLFKER (SEQ ID NO: 517)]	259 rampo units
KKLDTFFVKLSTFTER [KKLDTFFVKLSTFTER (SEQ ID NO: 358)]	437 rampo units
KKLDTFFVKLSPFTER [KKLDTFFVKLSPFTER (SEQ ID NO: 497)]	297 rampo units
KKLDTFFVKLSLNTER [KKLDTFFVKLSLNTER (SEQ ID NO: 368)]	862 rampo units
KKLDTFFVKLSYFTER [KKLDTFFVKLSYFTER (SEQ ID NO: 475)]	320 rampo units
KKLDTFFVKLSLLTER [KKLDTFFVKLSLLTER (SEQ ID NO: 366)]	448 rampo units
KKLDTFFVKLYLFTER [KKLDTFFVKLYLFTER (SEQ ID NO: 415)]	402 rampo units
KKLDTFFVKLSWFTER [KKLDTFFVKLSWFTER (SEQ ID NO: 360)]	409 rampo units
KKLDTFFVKLSRFTER [KKLDTFFVKLSRFTER (SEQ ID NO: 356)]	483 rampo units

Binder	RAMPO Score
KKLDTFFVKLSLFVER [KKLDTFFVKLSLFVER (SEQ ID NO: 385)]	380 rampo units
KKLDTFFVKQSLFTER [KKLDTFFVKQSLFTER (SEQ ID NO: 339)]	470 rampo units
KKLDTFFVKLSLFTET [KKLDTFFVKLSLFTET (SEQ ID NO: 392)]	292 rampo units
KKLDTFFVKLSLFTHR [KKLDTFFVKLSLFTHR (SEQ ID NO: 478)]	318 rampo units
KKLDTFFVKLSLFTPR [KKLDTFFVKLSLFTPR (SEQ ID NO: 439)]	351 rampo units
KKLDTFFVKLSLTTER [KKLDTFFVKLSLTTER (SEQ ID NO: 373)]	494 rampo units
KKLDTFFVKLSLFHER [KKLDTFFVKLSLFHER (SEQ ID NO: 378)]	463 rampo units
KKLDTFFVKLSLQTER [KKLDTFFVKLSLQTER (SEQ ID NO: 370)]	1140 rampo units
KKLDTFFVKMSLFTER [KKLDTFFVKMSLFTER (SEQ ID NO: 336)]	460 rampo units
KKLDTFFVKLSLFTEK [KKLDTFFVKLSLFTEK (SEQ ID NO: 389)]	291 rampo units
KKLDTFFVKLSSFTER [KKLDTFFVKLSSFTER (SEQ ID NO: 357)]	478 rampo units
KKLDTFFVKLSLHTER [KKLDTFFVKLSLHTER (SEQ ID NO: 364)]	1050 rampo units
KKLDTFFVKLSLVTER [KKLDTFFVKLSLVTER (SEQ ID NO: 374)]	446 rampo units
KKLDTFFVKLSLPTER [KKLDTFFVKLSLPTER (SEQ ID NO: 369)]	696 rampo units
KKLDTFFVKLSLFTQR [KKLDTFFVKLSLFTQR (SEQ ID NO: 450)]	344 rampo units
KKLDTFFVKLSLFNER [KKLDTFFVKLSLFNER (SEQ ID NO: 382)]	599 rampo units
KKLDTFFVKLSNFTER [KKLDTFFVKLSNFTER (SEQ ID NO: 354)]	462 rampo units
KKLDTFFVKLSLFFER [KKLDTFFVKLSLFFER (SEQ ID NO: 376)]	348 rampo units
KKLDTFFVKLSLFQER [KKLDTFFVKLSLFQER (SEQ ID NO: 493)]	301 rampo units
KKLDTFFVKLSLFTEH [KKLDTFFVKLSLFTEH (SEQ ID NO: 528)]	239 rampo units
KKLDTFFVKLTLFTER [KKLDTFFVKLTLFTER (SEQ ID NO: 349)]	520 rampo units
